Source: patent US20260053913A1 (BIOENTRE, published 2026)

T1: human CTLA4 (cytotoxic T-lymphocyte-associated antigen-4), isoform CTLA4-TM (human, UniProt P16410 36-223)
T1 sequence: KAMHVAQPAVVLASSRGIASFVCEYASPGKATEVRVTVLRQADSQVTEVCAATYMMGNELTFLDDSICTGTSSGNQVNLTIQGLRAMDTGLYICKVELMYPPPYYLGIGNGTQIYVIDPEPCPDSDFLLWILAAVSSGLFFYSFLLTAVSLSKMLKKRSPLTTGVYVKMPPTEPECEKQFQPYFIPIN

B1: BioE2032 (121 HuIgG1) (antibody, V domains shown)
VH: QVQLQESGPGLVKPSQTLSLTCTVSGFSLTSYGVYWVRQPPGKGLEWLGVIWAGGTTNYNSALMSRLTISKDTSKNQVSLKLSSVTAADTAVYYCARGPPHAMMKRGYAMDYWGQGTLVTVSS
VL: DIQMTQSPSSLSASVGDRVTITCSATSSITYMSWYQQKPGKAPKLLIYDTSNLASGVPSRFSGSGSGTDYTLTISSLQPEDFATYYCQQWSSYPLTFGGGTKLEIK
B2: L3D10 (antibody, from another filing, V domains shown)
VH: QVQLKESGPGLVAPSQSLSITCTVSGFSLTSYGLSWVRQPPGKGLEWLGVIWYDGNTNFHSALISRLTISKDNSKSQVFLELNSLQTDDTATYYCAKTEGHYYGSNYGYYALDYWGQGTSVTVSS
VL: DIQMTQSPASLSVSVGETVTITCRASENIYSNLAWYQQKQGKSPQLLVYAATNLADGVPSRFSGSGSGTQYSLKINSLQSEDFGTYFCQHLWGTPYTFGGGTKLEIKR
B3: BNI3, mouse IgG2a anti-human CTLA4 (CD152) antibody from BioXcell (antibody, V domains shown)
VH: DVQLQESGPGLVKPSQSLSLTCSVTGYSITSGYVWNWIRQFPGNKLEWMGYISHDGNTNYNPSLKNRISITRDTSKNQFFLKLNSVTTEDSATYYCTRNYGYGGTMDYWGQGTAVSVSS
VL: DIVMTQSQKFMSTSVGDRVSVTCKASQNVGTYVAWYEQKLGQSPKALIFSASYRYTGVPDRFTGSGSGTDFTLTISNVQSEDLAEYFCQQYDSYPLTFGGGTKLEIKR

Legend:
[1] = biological target: T1, human CTLA4 (cytotoxic …); assay: cell-based or functional assay
[2] = biological target: human CTLA4 (cytotoxic T-lymphocyte-associated antigen-4), isoform CTLA4-TM (human) (UniProt P16410); assay: cell-based or functional assay

| Binder | half maximum activity concentration, αCTLA 4 functional blockade assay [1] [nM] | maximal activity (ratio RLU), αCTLA 4 functional blockade assay [2] [ratio RLU] | plateau of the titration curve (ratio RLU over background) at 200 nM or greater [2] [ratio RLU] | biological activity relative to Ipilimumab, Promega anti-CTLA 4 and anti-CTLA 4 + anti-PD1 functional blockade assays [1] |
| --- | --- | --- | --- | --- |
| B1 | ~50 |  |  |  |
| B2 |  | 15 | 15 to 20 |  |
| B3 | ~50 |  |  | < 60 % of Ipilimumab activity |
